Experimental data from US20240026407A1, “MODIFICATION OF SAPONINS” (GLAXOSMITHKLINE BIOLOGICALS SA, priority 2020, published 2024).

B1: 1039 (protein, listed as Lactobacillus acidophilus)
chain: MKITNILVNQMEHPLGFDLSNLRITFELTEMENIIGNVYKNISVGKVESEQPIYFEPDELYENNAFKINMELEPRTKYWVKIGVRNDNEVTSSNTWFETGKMDEKFYGKWITNKKDVENTLFKKDFELANKQIKSARLYSTTLGVYEVDLNGVKVGNEFLAPGFTNYDKIVQLQTYDVTKLVTKNSNNELVFSVGDGWYKGNLGFDGGQTNIYGDKKSILAELHVTYTDNSEQVISTDSSWLTTEGKIIKSSIYYGEDIDDTKDILDWSSVVILNKSTSIVRDRLSLPIMKKEVLKVKEIIHTPKNEIVLDFGQNHAGWPVFINRLARGKKITLQMGEILQDGNFYNKNLRLARAAFTYISDGEEKLIRPHFTYFGFRYVKISGVTDVNKDDFESWVLYSDLKQTGFIKTNNDKVNRLFKNVIWGQKSNFMDVPTDCPQRDERLGWTGDAEIFAPTASFNMNTYEFYKKYAKDMLVEQEDNKGMLPIIVPSLKQKSTGMAIWSDAATIIPWVTYRFFDDLGVLKQNYSQMKNWVDWITQNTKTKYLWIGQMQLGDWLSLDNGANPQGKTNEDYIASIYYFVSASIVSKAARLLHYDMESDYYENLARNIKTNILNEFVTEKGRIAIDTQTALVLALHFGLVHDYQKSQVVADLVKKVKDDNKHLQTGFVGTPFLLSVLSNNNQHHLAMDIFMQEDCPSWLYEVNMGATTIWERWNSVLPDGKMNPEGMNSLNHYSFGAVMMWMYQCVVGLNQFDAGFKEIYFAPKFDCRLKDIYSEFDSTYGKIKVEYHLETNEKHLIRMNLVIPFGVKMKVKLPRSAKYLINGKEKIGIVKLEYGKYDISYIPTKSYLNYYDLNSKLVDILDNNDLVKRIDQIDEKILQKVKRMGNTRSIFINKKIDELLDFEEISQEEKNQLVDILHKTIFIKLNLF
B2: 1061 (protein, listed as Rhizobium leguminosarum)
chain: MNFQPAAISGNLVSRTWSGDMIAPLSDGGQGTAASFVSKTFEHDGTKLPAELFISALGLYRCFINGVRVGSDLLTPGWTNYDDRLAYQRYDVSNLLKPGLNRIEIWLADGWYRSPLMWGAQAIPNCWGDRIGAIADLIGADGTVLSTDTTWRSGVLPILRSGIYFGEIYDARQENCVETHGTEKLAFDKALLVAHETAAVRELRPLTAVENWTDDEGRTIYDFGQNAGGYIRYTVRGTAGAEVRVEHSEVLGPDRHFDNRNYRTAAAHTVYTLRGNGDETYAPHFTFHGFRYARVTIKGDAKILAIASIPISSVPEPAGGFTSGNALVNRLVENTIWSQRANFVEVPTDCPQRDERLGWTGDAQVFAATACWLSDSQSFLRKYLRDVMADQREDGAVSHFSPDPTRLHPANFPGYAGSTGWGDAIVVIPWVLYTHYGDRAVLSECLESMVRWVDFVWSISDGPLVRPPSRWGDRGFTFGDWLQPVGDNRKPRPTIADDCAATLYHFISTDLLARIAATLGEHALEEKMKQRANEIRRAFTNEFITPAGRLAHNDQTSYALAFLHDLIPAEHRQAAQQHFRQVIIDADYKIGTGFIGTPALLPALTKLGMDDLAEKVFLQEDVPGWLYQVSKGATTIWERWDSMAPDGTIYEPDMNSYNHYAYGAVCQWLFESVAGISPSPSAPGFAEVIVDPAPIPSLSPVSAYHDISQGRIEAGWHCDGKKVTYVLTLPEGCIGWFRPGKRHQNPSLNGEPVVEEAVLAPGTHRLVFSLPNS
B3: 1027 (protein, listed as Dictyoglomus thermophilum)
chain: MKSSNIYSPFDLKCEFTTNPLGVDKKNPIFSWKLRHLEKNEKQTAYQVIVSSSLETINDNIGDVWDTGKVLSSEQVIKYEGKELEPCKVYFWKVRWWDSKDQESPFSVVNTFETGLMNEENWKAKWITKKEHKYEVYSPDGAPFGLNYTIAYAPMFRKSFSISKKIKRARVYIAGLGLYELYINGERIGDRVLDPGQTDYKKRVLYTVYDVSKNIRDGKNAIGVILGNGRYVKEYGYDFPKLIIQVLVEYEDDSIEWIVSDESWKTTYGPITLNSLYHGEIYDGRKEIKGWNLPDFDDSTWENAILAEPPGGKLYSEIYPPIRITKTIKPIKMWSPEPGTYVYDFGQNYTGWIKIKVRTNESGKEIRIRHAELTYEDGTLNYSTNRTALATDVYITKGEGYEEYEPRFTYHGFRYVEILGYPGVPTLEDIEGKVVHTAVESNGEFICSNELINKIHHNIIWGQLSNLMSIPTDCPQRDERMGWMGDAQLSAEEAIFNFDMIGFYRKYLNDIRDAQKENGSLSDVIPPYWSIYPGDPAWSTAYITIAWYLYQYYGDKYVLEEHYEGFKKYVEFLKKLAPDYIVSFYKYGDWCQPGTVRPKDNSGELTSTFYFYHDVITLSKIAKLLGKEADYKYYSELADKIKSAFNKKFLKEKAYASIPTELSEENVKALLEKYPEDIKDFLRQQFTILSSLGMFTSQTLNTLPLYLNLVPEDKVQDVLKTLLEDIIIRHDYHLDTGIVATRYIFDVLTSYGYDEVAYKIVNQKTYPSFGYMIEEGATTLWERWEKLTSTGMNSHNHIMFGSVDAWFYRVIAGVRVGEPGWNKIIFEPHPVGDLKYAKARLNTIKGEVEINWQKTENIFSMRISVPVNSEGEVHVPKLFERFVVKEGDNIIYEKKGDLEENEKYIVIRVGSGSYNFYMEKI
B4: 1079 (protein, listed as Lunatimonas lonarensis)
chain: MSMIRILSLLFLWMLSFSLVAQSTFSLQKLKVDHQENPLGIETASPVFSWQMQVAGSERGVYQKAYRIQVSDSHGALIWDSQQVSSDRSVGIRYQGEKLRPITAYTWSLTVWNQSDHSQTEIGKFETGWMDSPNAWKNAEWIGGDSEDLVLYAHALAVFKAGVTIQLDQESKSTRAAFLLGGNDVRLMKKNLNILQMESGRDGSYVGFELDISQVNGTEEGLALLHAYRVGYHADDQVGTPFHSMPIPQRLIHEGNKYEPHDLFLECNLGIFQVYLNGTENENKISPNDPSKPSYVAQGLNLNPMGEGGNYINFPLLGDIGFKTDSGQLATFSNLTISNYRRPGNVLFSEAESTISIFDKHPNIRAIAGRYQVGTDNKAVLALEDPSRNAPPMLRTTFTTQAKKIKKARIYATARGIYEMYLNGKRVGQDYFNPGLTQYNKNHQYQIYEVTDALESNAANAWGAWLSEGWWSGHITFSGGNWNFFGDRQSFLGTLLIEYEDGTVQEINTQPQSWKLFTDGPILNGSFFQGEVYDANKESVLTGWSLAQFDDSSWKSAQNVPLEGTTYTGPMTNGTLDYKQLTLSAQNDPTPTIIRRLKAVSMEEVRPGVFVYDMGQNMVGVPKITLSHGHQGDTVILRFAEVKYPDLPAYHPHSGMIMMENIRAALTHDIYIRKGGDEVIQPRFTFHGYRYVEITGIKNAPPLNAVEGLVISSVDSIRSSYTTSNQDVNKLWENITWSMLGNFLSIPTDTPARNERMGWSGDINVFARTSTYLGEVLPFLKRHMMAMRDLQAANGKFADVTPVGNGFGGTLWGSAGIVLPWELFLQYGDTTILEENYEAMKAYLAFLETREDKDSGVQMEGPLGDWLSPEVNKNDNTQFFTAYQAYGYGILHQVAQILGKPTEAATFQAKFASRKKFLMDTYFDARTGKSIHSGVSTQGRGGSTAPGTQKGDPIDTQASYAIPLYLEVIDGDLQEKVLANLIATLARENVDDMGILRPAYSLMTGFIATAAINEAISRYGDPVHAYRLLQQTSYPSWLYSVKNGATTIWERLNSYTVEDGFGGNNSMNSFNHYSFGAVGAWMYMYSLGIQRHPEIPGFKKFRLQPQPDPDGKMTWAKGHYDSMYGRIHSEWKRGVDSWEYKATVPPNTSAVLVLPVKDLERVSEGGKMLTEVLGITLISRENGYITMELSSGSYTFSIE

Tests used:
Format in all cases: biochemical, Quillaja saponaria
[1] = Experiment 6-1: screening of rhamnosidases for derhamnosylation of saponins in treated bark extract (2%), QS-17 2310 to QS-18 2164 (PAR %); details: TBE 2%, pH 7.5, 30 degC, 18 h; TIC peak area ratio percent, LCMS/MS; negative controls 3.061, 2.429
[2] = Experiment 6-1: specificity of rhamnosidases towards other rhamnose residues (C3 saccharide rhamnose, C28 saccharide rhamnose); details: TBE 2%, pH 7.5, 30 degC, 18 h; LCMS/MS; negative controls 0.18, 0.17
[3] = Experiment 6-3: screening of rhamnosidases for derhamnosylation of saponins in crude bark extract (80%), relative % of Left, Middle and Right Peak by UV HPLC; details: CBE 80%, pH 7.4, 30 degC, 19.5 h; for Left Peak: mainly QS-17 family, negative control 27%; for Middle Peak: mainly QS-18 and desglucosyl-QS-17 family, negative control 48%; for Right Peak: mainly QS-21 family, negative control 26%
Method: Selected variants were expressed and lysed as in the method of experiment 6-1.
Crude bark extract (CBE) solution was adjusted to pH 7.4 by addition of NaOH (2M). 20 uL clarified lysate was transferred into fresh 96 well PCR plates. 80 uL CBE solution (pH 7.4) was added to each well of lysate to a final concentration of 80%. Plates were incubated at 30 degC with shaking for 19.5 h.
Quenched with 100 uL MeCN+2% AcOH and shaken at room temperature for 10 mins prior to centrifugation (10 min, 4 degC) to remove particulates. Samples were analysed by UV HPLC using method of Experiment 4-4.
Three key peaks of interest are apparent using this chromatography: Left Peak (retention time approximately 2.30-2.35 min) comprising mainly QS-17 family components; Middle Peak (retention time approximately 2.37-2.42 min) comprising mainly QS-18 family components and desglucosyl-QS-17 family components; and Right Peak (retention time approximately 2.44-2.50 min) comprising mainly QS-21 family components. Peak identity was supported by MS/MS.
Enzyme mediated hydrolysis of the alpha-O-rhamnosylation at the C2 position of the arabinofuranose moiety of QS-17 family components leads to a decrease in Left Peak and an increase in Middle Peak due to formation of QS-18 family components. Enzyme mediated hydrolysis of the alpha-O-rhamnosylation at the C2 position of the arabinofuranose moiety of desglucosyl-QS-17 family components leads to a decrease in Middle Peak and an increase in Right Peak due to formation of QS-21 family components.
The relative percentage of each peak was determined. A decrease in Left Peak and a concomitant increase in Middle Peak and Right Peak is observed for enzymes active under these conditions.

[4] = Experiment 6-1: screening of rhamnosidases for derhamnosylation of saponins in treated bark extract (2%), desglucosyl-QS-17 2134 to QS-21 1988 (PAR %); details: TBE 2%, pH 7.5, 30 degC, 18 h; TIC peak area ratio percent, LCMS/MS; negative controls 2.719, 2.158
[5] = Experiment 6-1: screening of rhamnosidases for derhamnosylation of saponins in treated bark extract (2%), QS-17 2296 to QS-18 2150 (PAR %); details: TBE 2%, pH 7.5, 30 degC, 18 h; TIC peak area ratio percent of rhamnosylated starting saponin to derhamnosylated product, LCMS/MS; negative controls 4.876, 5.225
[6] = Experiment 6-2: screening of rhamnosidases for derhamnosylation of saponins in treated bark extract (25%), relative % of Left, Middle and Right Peak by UV HPLC; details: TBE 25%, pH 7.4, 19.5 h; for Left Peak: mainly QS-17 family, negative control 24%; for Middle Peak: mainly QS-18 and desglucosyl-QS-17 family, negative control 50%; for Right Peak: mainly QS-21 family, negative control 26%

Row | Molecule | Peak57 (PAR %) [1] | ratio PP/QS-21 [2] | Left Peak [3] | Middle Peak [3] | Right Peak [3] | Peak75 (PAR %) [4] | QS-17 (PAR %) [5] | Left Peak [6] | Middle Peak [6] | Right Peak [6]
1 | B1 | 0.000% | 0.18 | 25% | 48% | 27% | 0.683% | 0.492% | 16% | 57% | 27%
2 | B2 | 0.029% | 0.19 | 26% | 48% | 27% | 0.230% | 0.245% | 13% | 59% | 28%
3 | B3 | 0.053% | 0.19 | 26% | 48% | 26% | 0.094% | 0.324% | 18% | 55% | 27%
4 | B4 | 0.000% | 0.18 | 25% | 48% | 27% | 0.247% | 0.315% | 14% | 58% | 28%
